The values that follow come from patent publication US20170240637A1 (Memorial Sloan Kettering, published 2017).

For assay [1], the target named is T1, 4Ig-B7H3 (human, UniProt Q5ZPR3 27-461, limits assumed).
T1 construct: also called 4Ig-B73H3
T1 sequence (looked up): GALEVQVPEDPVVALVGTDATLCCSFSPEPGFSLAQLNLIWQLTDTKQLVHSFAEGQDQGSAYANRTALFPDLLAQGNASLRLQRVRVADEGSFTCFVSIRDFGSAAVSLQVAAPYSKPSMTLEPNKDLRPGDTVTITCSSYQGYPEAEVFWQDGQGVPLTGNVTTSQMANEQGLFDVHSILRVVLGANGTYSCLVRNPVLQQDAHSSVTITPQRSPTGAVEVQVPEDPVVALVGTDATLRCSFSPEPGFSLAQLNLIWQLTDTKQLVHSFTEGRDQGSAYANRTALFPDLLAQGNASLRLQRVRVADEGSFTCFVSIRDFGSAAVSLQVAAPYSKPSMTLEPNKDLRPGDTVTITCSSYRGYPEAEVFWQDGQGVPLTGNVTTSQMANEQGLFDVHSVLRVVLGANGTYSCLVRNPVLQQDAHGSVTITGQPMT
As to the kind of experiment: SPR, IgG on 4Ig-B7-H3 without Fc fusion. On the procedure:
(§1) In brief, B7H3 antigen (either 2Ig-B7H3, 4Ig-B7H3, 2Ig-B7H3-mFc, 4Ig-B7H3-mFc), was directly immobilized onto the CM5 sensor chip via […]. Reference surface was set up for nonspecific binding and refractive index changes. […] The association and dissociation phase data were fitted simultaneously to a 1:1 model by using BIAevaluation 3.2. All the experiments were done at 25° C.
In general terms: In SPR one partner is held on a chip, and binding of the other changes the refractive index at the surface.

The target in assay [2] is B7H3 on B7H3-positive human tumor cells (M14, LAN-1, IMR-32, HeLa) (human) (UniProt Q5ZPR3). Nature of the assay: cell-binding assay of 131I-labelled antibody on LAN-1 cells.
Assay [3] deals with T2, 2Ig-B7H3 without Fc fusion (human, UniProt Q5ZPR3-2 29-245, limits assumed).
T2 construct: also called 2IgB7H3 (R&D)
T2 sequence (looked up): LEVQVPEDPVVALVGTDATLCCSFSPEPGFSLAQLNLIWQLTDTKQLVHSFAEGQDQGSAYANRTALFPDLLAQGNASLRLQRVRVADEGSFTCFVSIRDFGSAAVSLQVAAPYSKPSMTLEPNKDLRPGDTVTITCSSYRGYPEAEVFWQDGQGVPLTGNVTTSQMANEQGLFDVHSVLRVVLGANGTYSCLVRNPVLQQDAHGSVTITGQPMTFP
Nature of the assay: SPR, IgG on 2Ig-B7-H3 without Fc fusion. The procedure:
as §1

In assay [4] the target is B7H3 on B7H3-positive human tumor cells (M14, LAN-1, IMR-32, HeLa) (human) (UniProt Q5ZPR3). As to the kind of experiment: cell-based or functional assay.
Assay [5] concerns the target T1, 4Ig-B7H3. Nature of the assay: SPR.
Assay [6] has as its target T2, 2Ig-B7H3 without Fc fusion. Nature of the assay: SPR.
Assay [7] addresses T3, wild type 2Ig-B7H3-mFc (human, UniProt Q5ZPR3-2 29-248, limits assumed).
T3 construct: Q5ZPR3 canonical entry is the 4Ig isoform; the 2Ig form is its shorter isoform; also called 2Ig-B7H3-Fc; WT 2Ig-B7H3-Fc; not shown: mouse Fc
T3 sequence (looked up): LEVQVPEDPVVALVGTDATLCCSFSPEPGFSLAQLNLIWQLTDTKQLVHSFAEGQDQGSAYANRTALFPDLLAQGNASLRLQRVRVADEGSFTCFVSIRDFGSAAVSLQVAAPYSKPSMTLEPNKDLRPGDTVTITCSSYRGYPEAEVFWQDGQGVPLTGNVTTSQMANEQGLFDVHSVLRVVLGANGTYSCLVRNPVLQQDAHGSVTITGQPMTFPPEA
Nature of the assay: SPR, IgG on 2Ig-B7H3-mFc. The procedure: as §1

Assay [8] addresses T4, 4Ig-B7H3 fused to mouse Fc (B7H3-mFc) (human, UniProt Q5ZPR3 29-466, limits assumed, biotinylated on primary amines (NHS-biotin) in the experiment of paragraph 316).
T4 construct: Expressed in DG44 CHO cells; also called 4Ig-B7H3-Fc; 4Ig-B7H3-mFc; not shown: mouse Fc
T4 sequence (looked up): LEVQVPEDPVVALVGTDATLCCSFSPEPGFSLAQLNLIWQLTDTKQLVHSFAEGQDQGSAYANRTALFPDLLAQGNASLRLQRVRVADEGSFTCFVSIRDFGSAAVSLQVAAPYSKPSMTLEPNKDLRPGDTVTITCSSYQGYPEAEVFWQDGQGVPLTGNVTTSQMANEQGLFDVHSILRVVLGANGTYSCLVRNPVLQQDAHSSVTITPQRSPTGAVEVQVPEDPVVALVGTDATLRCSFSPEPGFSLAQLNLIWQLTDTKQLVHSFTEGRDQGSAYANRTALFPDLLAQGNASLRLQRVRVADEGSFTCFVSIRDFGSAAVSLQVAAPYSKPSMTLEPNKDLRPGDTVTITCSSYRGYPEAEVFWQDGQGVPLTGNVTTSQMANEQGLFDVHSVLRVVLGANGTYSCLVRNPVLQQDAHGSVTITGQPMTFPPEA
Nature of the assay: SPR, IgG on 4Ig-B7H3-Fc. The procedure:
as §1

Assay [9] concerns the target T1, 4Ig-B7H3. Nature of the assay: SPR, antigen on CM5 chip. The procedure: (§2) In brief, B7H3 antigen (either 2Ig-B7H3, 4Ig-B7H3, 2Ig-B7H3-mFc, 4Ig-B7H3-mFc), was directly immobilized onto the CM5 sensor chip via […]. Reference surface was set up for nonspecific binding and refractive index changes. For analysis of the kinetics of interactions, varying concentrations of scFvs were injected at flow rate of 30 μl/min using running buffer containing 10 mM HEPES, 150 mM NaCl, 3 mM EDTA, and 0.05% Surfactant P-20 (pH 7.4). The association and dissociation phase data were fitted simultaneously to a 1:1 model by using BIAevaluation 3.2. All the experiments were done at 25° C.

The target in assay [10] is T3, wild type 2Ig-B7H3-mFc. As to the kind of experiment: SPR, antigen on CM5 chip. On the procedure:
as §2

In assay [11] the target is T1, 4Ig-B7H3. Nature of the assay: SPR (Biacore T-100), 4Ig-B7H3 on CM5 chip, scFv injected. The procedure:
as §2

B1: ch8H9 6.1 IgG (ch8H9 + 6 affinity maturation mutations) (antibody, V domains shown)
VH: QVQLQQSGAELVKPGASVKLSCKTSGYTFTNYDINWVRQRPGQGLEWIGWIFPGDDSTQYNEKFKGKATLTTDTSSSTAYMQLSRLTSEDSAVYFCARQTTGTWFAYWGQGTLVTVSA
VL: DIVMTQSPATLSVTPGDRVTLSCRASQSISDYLYWYQQKSHESPRLLIKYASQSISGIPSRFSGSGSGSDFTLSINSVEPEDVGVYYCQNGHSFPLTFGAGTKLELKR
As usually defined, the Kd is the equilibrium constant for the complex coming apart. Read a low Kd as a tighter complex. What is called koff is the rate constant with which the complex falls apart. A word on the kon: it is a measure of how fast the partners come together. The low end stands for slow association, the high end for fast association. In the assay with 4Ig-B7H3 [1], B1 returned a dissociation constant Kd of 3.7 nM, a koff of 0.000123 s⁻¹ and a kon of 33500 M⁻¹ s⁻¹. This molecule also had an in vitro immunoreactivity in assay [2] of 73%. In addition, in [3], the Kd came to 0.62 nM, the koff is 4.25e-05 s⁻¹ and the on-rate (kon) was 68900 M⁻¹ s⁻¹. In assay [4], this molecule came in with an ADCC EC50 (µg/ml), 51Cr release, LAN-1 targets, human PBMC effectors of 0.1 µg/mL and a Fold change EC50 relative to ch8H9 (ADCC) of 14 fold. In addition, the “fold enhancement in binding relative to ch8H9” value with 4Ig-B7H3 [5] was in the range of 2 to 4 fold. Further, the “fold enhancement in binding relative to ch8H9” value in assay [6] lay within 2 to 4 fold.

B2: hu8H9-H1L2 IgG1 (antibody, V domains shown)
VH: QVQLVQSGAEVKKPGASVKLSCKASGYTFTNYDINWVRQAPGQGLEWIGWIFPGDGSTQYNEKFKGKATLTTDTSTSTAYMELSSLRSEDTAVYFCARQTTATWFAYWGQGTLVTVSS
VL: EIVMTQSPATLSVSPGERVTLSCRASQSISDYLHWYQQKSHESPRLLIKYASQSISGIPARFSGSGSGTEFTLTINSVEPEDVGVYYCQNGHSFPLTFGQGTKLEIKR
In the assay with wild type 2Ig-B7H3-mFc [7], B2 displayed a Kd of 68.4 nM, a koff of 0.00116 s⁻¹ and an on-rate constant (kon) of 17000 M⁻¹ s⁻¹. Also, in assay [8], the affinity, expressed as Kd, was 42.7 nM; the dissociation rate constant (koff) worked out at 0.0239 s⁻¹; the kon was 560000 M⁻¹ s⁻¹. The molecule also displayed a dissociation constant Kd with 4Ig-B7H3 [9] of 34.8 nM.

B3: murine 8H9 (m8H9) IgG1 monoclonal antibody (antibody, V domains shown)
VH: QVQLQQSGAELVKPGASVKLSCKASGYTFTNYDINWVRQRPEQGLEWIGWIFPGDGSTQYNEKFKGKATLTTDTSSSTAYMQLSRLTSEDSAVYFCARQTTATWFAYWGQGTLVTVSA
VL: DIVMTQSPATLSVTPGDRVSLSCRASQSISDYLHWYQQKSHESPRLLIKYASQSISGIPSRFSGSGSGSDFTLSINSVEPEDVGVYYCQNGHSFPLTFGAGTKLELK
modifications: 131I-labelled in the LAN-1 immunoreactivity assay; the label is not carried by the letters.
notes: also called MAb 8H9
For the molecule B3, in the assay with 4Ig-B7H3 [1], the Kd amounted to 8.9 nM, the dissociation rate constant (koff) stood at 0.000165 s⁻¹ and the kon is 18500 M⁻¹ s⁻¹. For the same molecule, in [2], the in vitro immunoreactivity worked out at 69%. In addition, in assay [3], the Kd turned out to be 0.81 nM, the koff is 2.24e-05 s⁻¹ and the association rate constant (kon) came to 27800 M⁻¹ s⁻¹. In the assay with wild type 2Ig-B7H3-mFc [10], this molecule gave a dissociation constant (Kd) of 0.28 nM, a dissociation rate constant (koff) of 1.03e-05 s⁻¹ and an association rate constant (kon) of 36700 M⁻¹ s⁻¹.

B4: hu8H9-H1L1 IgG1 (antibody, V domains shown)
VH: QVQLVQSGAEVKKPGASVKLSCKASGYTFTNYDINWVRQAPGQGLEWIGWIFPGDGSTQYNEKFKGKATLTTDTSTSTAYMELSSLRSEDTAVYFCARQTTATWFAYWGQGTLVTVSS
VL: EIVMTQSPATLSVSPGERVTLSCRASQSISDYLHWYQQKPGQAPRLLIKYASQSISGIPARFSGSGSGTEFTLTISSVQPEDVGVYYCQNGHSFPLTFGQGTKLEIKR
Regarding B4, in the assay with 4Ig-B7H3 [9], the dissociation constant Kd worked out at 112 nM.

B5: hu8H9-H2L2 IgG1 (antibody, V domains shown)
VH: QVQLVQSGAEVVKPGASVKLSCKASGYTFTNYDINWVRQAPGQGLEWIGWIFPGDGSTQYNEKFKGKATLTTDTSTSTAYMELSRLTSEDTAVYFCARQTTATWFAYWGQGTLVTVSS
VL: EIVMTQSPATLSVSPGERVTLSCRASQSISDYLHWYQQKSHESPRLLIKYASQSISGIPARFSGSGSGTEFTLTINSVEPEDVGVYYCQNGHSFPLTFGQGTKLEIKR
With B5, the affinity with 4Ig-B7H3 [9], expressed as Kd, was 38.6 nM.

B6: hu8H9-H2L1 IgG1 (antibody, V domains shown)
VH: QVQLVQSGAEVVKPGASVKLSCKASGYTFTNYDINWVRQAPGQGLEWIGWIFPGDGSTQYNEKFKGKATLTTDTSTSTAYMELSRLTSEDTAVYFCARQTTATWFAYWGQGTLVTVSS
VL: EIVMTQSPATLSVSPGERVTLSCRASQSISDYLHWYQQKPGQAPRLLIKYASQSISGIPARFSGSGSGTEFTLTISSVQPEDVGVYYCQNGHSFPLTFGQGTKLEIKR
B6 returned a Kd with 4Ig-B7H3 [9] of 34.8 nM.

B7: hu8H9 clone S7.17 scFv (scFv)
scFv: QVQLVQSGAEVVKPGASVKLSCKTSGYTFTNYDINWVRQRPGQGLEWVGWIFPGDGSTQYNEKFKGKATLTTDTSTSTAYMELSSLRSEDTAVYFCARQTTSTWFAYWGQGTLVTVSSGGGGSGGGGSGGGGSEIVMTQSPATLSVSPGERVTLSCRASQPISDYLYWYQQKSHESPRLLIKYASQSISGIPARFSGSGSGSEFTLTINSVEPEDVGVYYCQNGYSFPLTFGQGTKLELKR
notes: not shown: FLAG and His tags
For the molecule B7, in the assay with 4Ig-B7H3 [11], the Kd is 2.2 nM, the koff is 0.000113 s⁻¹ and the on-rate (kon) came out at 51000 M⁻¹ s⁻¹. Moreover, in the assay with 4Ig-B7H3 [5], the “fold affinity improvement against parental hu8H9 H3L3 scFv” value (shortened to “fold affinity improvement”) was over 50 fold.

B8: hu8H9 clone S7.29 scFv (scFv)
scFv: QVQLVQSGAEVVKPGASVKLSCKTSGYTFTNYDINWVRQRPGQGLEWIGWIFPGDGSTQYNEKFKGKATLTTDTSTSTAYLELSSLGSEDTAVYFCARQTTGTWFAYWGQGTLVTVSSGGGGSGGGGSGGGGSEIVMTQSPATLSVSPGERVTLSCRASQSISDYLYWYQQKSHESPRLLIKYASQSISGIPARFSGSGSGSEFTLTINSVEPEDVGVYYCQNGHSFPLTFGQGTKLELKR
notes: not shown: FLAG and His tags
In the assay with 4Ig-B7H3 [11], B8 gave a Kd of 2.7 nM, a koff of 0.000152 s⁻¹ and an on-rate constant (kon) of 55900 M⁻¹ s⁻¹. Also, the “fold affinity improvement” value with 4Ig-B7H3 [5] was over 50 fold.

B9: hu8H9 clone S7.22 scFv (scFv)
scFv: QVQLVQSGAEVVKPGASVKLSCKTSGYTFTNYDINWVRQRPGQGLEWIGWIFPGDDSTQYNEKFKGKATLTTDTSTSTAYMELSSLRPEDTAVYFCARQTTGTWFAYWGQGTLVTVSSGGGGSGGGGSGGGGSEIVMTQSPATLSVSPGERVTLSCRASQSISDYLYWYQQKSHESPRLLIKYASQSIPGIPARFSGSGSGSEFTLTINSVEPEDVGVYYCQNGHSFPLTFGQGTKLELKR
notes: not shown: FLAG and His tags
In the assay with 4Ig-B7H3 [11], B9 yielded a Kd of 1.2 nM, a koff of 9.99e-05 s⁻¹ and a kon of 86100 M⁻¹ s⁻¹. In the assay with 4Ig-B7H3 [5], the “fold affinity improvement” value was over 50 fold and the “fold binding improvement against parental hu8H9 H3L3 scFv” value was over 100 fold.
